The source of these data is publication PMC12469269 (2025).

Holding throughout (assay): SPR
Assay [1] concerns the target T1, Recombinant Human Vimentin Protein, CF (human, UniProt P08670 1-466).
Assay [2] concerns the target T2, Recombinant Human GRP75/HSPA9B/Mortalin His Protein (human, UniProt P38646 47-679).
The target in assay [3] is T1, Recombinant Human Vimentin Protein, CF. The source holds these as a separate data set.
Assay [4] concerns the target T2, Recombinant Human GRP75/HSPA9B/Mortalin …. This is another data set of the same source.
For the next assay, the target named is Mortalin peptide #56 (UniProt P38646).
The next assay deals with Mortalin peptide #62 (UniProt P38646).

T2 sequence (P38646 47-679): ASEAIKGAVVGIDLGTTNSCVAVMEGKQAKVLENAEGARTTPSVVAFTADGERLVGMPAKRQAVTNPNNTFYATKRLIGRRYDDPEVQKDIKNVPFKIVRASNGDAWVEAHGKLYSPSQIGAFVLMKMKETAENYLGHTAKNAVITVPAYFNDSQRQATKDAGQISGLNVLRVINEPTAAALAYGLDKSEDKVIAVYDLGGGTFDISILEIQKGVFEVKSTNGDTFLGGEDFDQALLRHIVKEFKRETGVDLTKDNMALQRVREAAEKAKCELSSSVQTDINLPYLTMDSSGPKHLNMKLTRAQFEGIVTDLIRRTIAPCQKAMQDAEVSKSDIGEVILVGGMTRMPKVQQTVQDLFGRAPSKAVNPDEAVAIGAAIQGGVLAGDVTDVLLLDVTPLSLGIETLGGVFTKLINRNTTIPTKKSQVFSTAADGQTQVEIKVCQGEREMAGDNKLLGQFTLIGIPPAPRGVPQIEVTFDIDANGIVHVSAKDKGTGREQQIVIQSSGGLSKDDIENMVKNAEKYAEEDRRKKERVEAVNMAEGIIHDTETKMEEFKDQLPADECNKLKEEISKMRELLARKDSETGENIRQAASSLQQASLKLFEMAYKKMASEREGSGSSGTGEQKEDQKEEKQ
T1 sequence (P08670 whole entry): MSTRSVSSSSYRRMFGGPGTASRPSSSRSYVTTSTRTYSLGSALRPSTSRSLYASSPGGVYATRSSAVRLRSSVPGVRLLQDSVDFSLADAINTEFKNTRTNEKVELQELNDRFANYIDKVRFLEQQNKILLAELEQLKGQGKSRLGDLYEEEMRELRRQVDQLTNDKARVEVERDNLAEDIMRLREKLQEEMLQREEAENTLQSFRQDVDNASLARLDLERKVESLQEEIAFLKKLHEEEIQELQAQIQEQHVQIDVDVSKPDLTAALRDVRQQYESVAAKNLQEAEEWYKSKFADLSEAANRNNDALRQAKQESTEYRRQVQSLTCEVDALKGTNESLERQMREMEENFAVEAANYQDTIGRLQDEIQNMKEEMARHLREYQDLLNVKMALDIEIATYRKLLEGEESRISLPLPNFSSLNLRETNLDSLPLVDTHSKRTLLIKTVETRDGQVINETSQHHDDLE

B1: SMRwt peptide (peptide)
chain: VGFPV
For B1, the values for the koff in assay [1] and in assay [2] were 0.0566 s⁻¹ and 0.0152 s⁻¹, respectively. Besides, the results for the Kd in assay [3] and in assay [4] were 8.8 µM and 22.6 µM, respectively.

B2: HIV-1 Nef protein (natural protein)
chain: MGGKWSKSSVVGWPTVRERMRRAEPAADGVGAASRDLEKHGAITSSNTAATNAACAWLEAQEEEEVGFPVTPQVPLRPMTYKAAVDLSHFLKEKGGLEGLIHSQRRQDILDLWIYHTQGYFPDWQNYTPGPGVRYPLTFGWCYKLVPVEPDKVEEANKGENTSLLHPVSLHGMDDPEREVLEWRFDSRLAFHHVARELHPEYFKNC
In the case of B2, the Kd in the assay with Mortalin peptide #56 stood at 76.9 µM; with Mortalin peptide #62, 1.9 µM. Besides, the off-rate constant (koff) was found to be 0.0285 s⁻¹ in the assay with Mortalin peptide #56, 0.000901 s⁻¹ in assay [1], 0.0226 s⁻¹ in assay [2] and 0.0037 s⁻¹ with Mortalin peptide #62.
